The values below come from PMC12148439 (2025).

The target in assay [1] is T1, CitAGacS649 (chimeric protein: GacS649 with its PDC domain replaced by the PDC domain of CitA from K (Pseudomonas aeruginosa | Klebsiella …, UniProt P52687 55-173, amine-reactive AlexaFluor 488 label (in the MST))). In words: MST; 0.01 M citrate.
Assay [2] concerns the target T1, CitAGacS649 (chimeric protein: GacS649 …). In words: MST; no citrate.

B1: RetSHK (histidine kinase region of the sensor histidine kinase RetS, residues 413-649) (domain or fragment)
chain: QTKAEFLAKISHEIRTPMNGVLGMTELLLGTPLSAKQRDYVQTIHSAGNELLTLINEILDISKLESGQIELDEVQFDLNALIEDCLDIFRVKAEQQRIELISFTQPQVPRVIGGDPTRLRQVVLSLLDNAFKQTEEGEILLVVALDDQGETPRLRIAVQDSGHPFDAKEREALLTAELHSGDFLSASKLGSHLGLIIARQLVRLMGGEFGIQSGSSQGTTLSLTLPLDPQQLENPTA
As for B1, the Kd (as a rule, the constant that tells how readily two partners part at equilibrium) came to 46 µM in assay [1] and 11 µM in assay [2].
